Measured values taken from US20260193293A1, “PEPTIDES CAPABLE OF INHIBITING PROTEIN-PROTEIN INTERACTIONS AT GABAB1A SUBUNIT AND USES THEREOF” (UNIVERSITY OF COPENHAGEN, priority 2022, published 2026).
Non-standard residues stand in square brackets, D forms with d. NMeW = CN[C@@H](Cc1c[nH]c2ccccc12)C(=O)O; NMeF = CN[C@@H](Cc1ccccc1)C(=O)O; NMeI = CC[C@H](C)[C@H](NC)C(=O)O; NMeT = CN[C@H](C(=O)O)[C@@H](C)O; NMeE = CN[C@@H](CCC(=O)O)C(=O)O; NMeD = CN[C@@H](CC(=O)O)C(=O)O; Sar = CNCC(=O)O

B1: p… (peptide)
peptide: Ac-[dP]WAIVWGPTVSRED-NH2
SMILES: CC[C@H](C)[C@H](NC(=O)[C@H](C)NC(=O)[C@H](Cc1c[nH]c2ccccc12)NC(=O)[C@H]1CCCN1C(C)=O)C(=O)N[C@H](C(=O)N[C@@H](Cc1c[nH]c2ccccc12)C(=O)NCC(=O)N1CCC[C@H]1C(=O)N[C@H](C(=O)N[C@H](C(=O)N[C@@H](CO)C(=O)N[C@@H](CCCNC(=N)N)C(=O)N[C@@H](CCC(=O)O)C(=O)N[C@@H](CC(=O)O)C(N)=O)C(C)C)[C@@H](C)O)C(C)C
B2: (N-Me-E)… (peptide)
peptide: Ac-[NMeE]TEFIAWGPTGDED-NH2
SMILES: CC[C@H](C)[C@H](NC(=O)[C@H](Cc1ccccc1)NC(=O)[C@H](CCC(=O)O)NC(=O)[C@@H](NC(=O)[C@H](CCC(=O)O)N(C)C(C)=O)[C@@H](C)O)C(=O)N[C@@H](C)C(=O)N[C@@H](Cc1c[nH]c2ccccc12)C(=O)NCC(=O)N1CCC[C@H]1C(=O)N[C@H](C(=O)NCC(=O)N[C@@H](CC(=O)O)C(=O)N[C@@H](CCC(=O)O)C(=O)N[C@@H](CC(=O)O)C(N)=O)[C@@H](C)O
B3: ETEF(N-Me-I)… (peptide)
peptide: Ac-ETEF[NMeI]AWGPTGDED-NH2
SMILES: CC[C@H](C)[C@@H](C(=O)N[C@@H](C)C(=O)N[C@@H](Cc1c[nH]c2ccccc12)C(=O)NCC(=O)N1CCC[C@H]1C(=O)N[C@H](C(=O)NCC(=O)N[C@@H](CC(=O)O)C(=O)N[C@@H](CCC(=O)O)C(=O)N[C@@H](CC(=O)O)C(N)=O)[C@@H](C)O)N(C)C(=O)[C@H](Cc1ccccc1)NC(=O)[C@H](CCC(=O)O)NC(=O)[C@@H](NC(=O)[C@H](CCC(=O)O)NC(C)=O)[C@@H](C)O
B4: …(N-Me-D) (peptide)
peptide: Ac-ETEFIAWGPTGDE[NMeD]-NH2
SMILES: CC[C@H](C)[C@H](NC(=O)[C@H](Cc1ccccc1)NC(=O)[C@H](CCC(=O)O)NC(=O)[C@@H](NC(=O)[C@H](CCC(=O)O)NC(C)=O)[C@@H](C)O)C(=O)N[C@@H](C)C(=O)N[C@@H](Cc1c[nH]c2ccccc12)C(=O)NCC(=O)N1CCC[C@H]1C(=O)N[C@H](C(=O)NCC(=O)N[C@@H](CC(=O)O)C(=O)N[C@@H](CCC(=O)O)C(=O)N(C)[C@@H](CC(=O)O)C(N)=O)[C@@H](C)O
B5: E(N-Me-T)… (peptide)
peptide: Ac-E[NMeT]EFIAWGPTGDED-NH2
SMILES: CC[C@H](C)[C@H](NC(=O)[C@H](Cc1ccccc1)NC(=O)[C@H](CCC(=O)O)NC(=O)[C@H]([C@@H](C)O)N(C)C(=O)[C@H](CCC(=O)O)NC(C)=O)C(=O)N[C@@H](C)C(=O)N[C@@H](Cc1c[nH]c2ccccc12)C(=O)NCC(=O)N1CCC[C@H]1C(=O)N[C@H](C(=O)NCC(=O)N[C@@H](CC(=O)O)C(=O)N[C@@H](CCC(=O)O)C(=O)N[C@@H](CC(=O)O)C(N)=O)[C@@H](C)O
B6: ET(N-Me-E)… (peptide)
peptide: Ac-ET[NMeE]FIAWGPTGDED-NH2
SMILES: CC[C@H](C)[C@H](NC(=O)[C@H](Cc1ccccc1)NC(=O)[C@H](CCC(=O)O)N(C)C(=O)[C@@H](NC(=O)[C@H](CCC(=O)O)NC(C)=O)[C@@H](C)O)C(=O)N[C@@H](C)C(=O)N[C@@H](Cc1c[nH]c2ccccc12)C(=O)NCC(=O)N1CCC[C@H]1C(=O)N[C@H](C(=O)NCC(=O)N[C@@H](CC(=O)O)C(=O)N[C@@H](CCC(=O)O)C(=O)N[C@@H](CC(=O)O)C(N)=O)[C@@H](C)O
B7: ETEFIA(N-Me-W)GPTGDED (peptide)
peptide: Ac-ETEFIA[NMeW]GPTGDED-NH2
SMILES: CC[C@H](C)[C@H](NC(=O)[C@H](Cc1ccccc1)NC(=O)[C@H](CCC(=O)O)NC(=O)[C@@H](NC(=O)[C@H](CCC(=O)O)NC(C)=O)[C@@H](C)O)C(=O)N[C@@H](C)C(=O)N(C)[C@@H](Cc1c[nH]c2ccccc12)C(=O)NCC(=O)N1CCC[C@H]1C(=O)N[C@H](C(=O)NCC(=O)N[C@@H](CC(=O)O)C(=O)N[C@@H](CCC(=O)O)C(=O)N[C@@H](CC(=O)O)C(N)=O)[C@@H](C)O
B8: …(N-Me-D)ED (peptide)
peptide: Ac-ETEFIAWGPTG[NMeD]ED-NH2
SMILES: CC[C@H](C)[C@H](NC(=O)[C@H](Cc1ccccc1)NC(=O)[C@H](CCC(=O)O)NC(=O)[C@@H](NC(=O)[C@H](CCC(=O)O)NC(C)=O)[C@@H](C)O)C(=O)N[C@@H](C)C(=O)N[C@@H](Cc1c[nH]c2ccccc12)C(=O)NCC(=O)N1CCC[C@H]1C(=O)N[C@H](C(=O)NCC(=O)N(C)[C@@H](CC(=O)O)C(=O)N[C@@H](CCC(=O)O)C(=O)N[C@@H](CC(=O)O)C(N)=O)[C@@H](C)O
B9: …(N-Me-E)D (peptide)
peptide: Ac-ETEFIAWGPTGD[NMeE]D-NH2
SMILES: CC[C@H](C)[C@H](NC(=O)[C@H](Cc1ccccc1)NC(=O)[C@H](CCC(=O)O)NC(=O)[C@@H](NC(=O)[C@H](CCC(=O)O)NC(C)=O)[C@@H](C)O)C(=O)N[C@@H](C)C(=O)N[C@@H](Cc1c[nH]c2ccccc12)C(=O)NCC(=O)N1CCC[C@H]1C(=O)N[C@H](C(=O)NCC(=O)N[C@@H](CC(=O)O)C(=O)N(C)[C@@H](CCC(=O)O)C(=O)N[C@@H](CC(=O)O)C(N)=O)[C@@H](C)O
B10: …(N-Me-G)DED (peptide)
peptide: Ac-ETEFIAWGPT[Sar]DED-NH2
SMILES: CC[C@H](C)[C@H](NC(=O)[C@H](Cc1ccccc1)NC(=O)[C@H](CCC(=O)O)NC(=O)[C@@H](NC(=O)[C@H](CCC(=O)O)NC(C)=O)[C@@H](C)O)C(=O)N[C@@H](C)C(=O)N[C@@H](Cc1c[nH]c2ccccc12)C(=O)NCC(=O)N1CCC[C@H]1C(=O)N[C@H](C(=O)N(C)CC(=O)N[C@@H](CC(=O)O)C(=O)N[C@@H](CCC(=O)O)C(=O)N[C@@H](CC(=O)O)C(N)=O)[C@@H](C)O
B11: …(N-Me-T)GDED (peptide)
peptide: Ac-ETEFIAWGP[NMeT]GDED-NH2
SMILES: CC[C@H](C)[C@H](NC(=O)[C@H](Cc1ccccc1)NC(=O)[C@H](CCC(=O)O)NC(=O)[C@@H](NC(=O)[C@H](CCC(=O)O)NC(C)=O)[C@@H](C)O)C(=O)N[C@@H](C)C(=O)N[C@@H](Cc1c[nH]c2ccccc12)C(=O)NCC(=O)N1CCC[C@H]1C(=O)N(C)[C@H](C(=O)NCC(=O)N[C@@H](CC(=O)O)C(=O)N[C@@H](CCC(=O)O)C(=O)N[C@@H](CC(=O)O)C(N)=O)[C@@H](C)O
B12: ETE(N-Me-F)… (peptide)
peptide: Ac-ETE[NMeF]IAWGPTGDED-NH2
SMILES: CC[C@H](C)[C@H](NC(=O)[C@H](Cc1ccccc1)N(C)C(=O)[C@H](CCC(=O)O)NC(=O)[C@@H](NC(=O)[C@H](CCC(=O)O)NC(C)=O)[C@@H](C)O)C(=O)N[C@@H](C)C(=O)N[C@@H](Cc1c[nH]c2ccccc12)C(=O)NCC(=O)N1CCC[C@H]1C(=O)N[C@H](C(=O)NCC(=O)N[C@@H](CC(=O)O)C(=O)N[C@@H](CCC(=O)O)C(=O)N[C@@H](CC(=O)O)C(N)=O)[C@@H](C)O
B13: peptide 38 (Ac-ETEFIAWG(N-Me-G)TGDED-NH2) (peptide)
peptide: Ac-ETEFIAWG[Sar]TGDED-NH2
SMILES: CC[C@H](C)[C@H](NC(=O)[C@H](Cc1ccccc1)NC(=O)[C@H](CCC(=O)O)NC(=O)[C@@H](NC(=O)[C@H](CCC(=O)O)NC(C)=O)[C@@H](C)O)C(=O)N[C@@H](C)C(=O)N[C@@H](Cc1c[nH]c2ccccc12)C(=O)NCC(=O)N(C)CC(=O)N[C@H](C(=O)NCC(=O)N[C@@H](CC(=O)O)C(=O)N[C@@H](CCC(=O)O)C(=O)N[C@@H](CC(=O)O)C(N)=O)[C@@H](C)O

target: Sushi domains (SD1/2) protein of the GABAB1a (GB1a) subunit, recombinant; assay: FP competition
Sequence (Q9Z0U4 29-158): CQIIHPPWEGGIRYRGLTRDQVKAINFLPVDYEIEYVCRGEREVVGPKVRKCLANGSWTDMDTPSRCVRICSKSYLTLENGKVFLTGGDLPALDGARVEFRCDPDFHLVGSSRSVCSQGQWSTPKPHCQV

Row | Ki [nM] | Binder
1 | 39 | Ac-ETEFIAWGPTGDE[dD]-NH2 […d]
2 | 1500 | Ac-PWAIVWGATVSRED-NH2
3 | 572 | Ac-PWAIVWGPTVSREA-NH2
4 | 1300 | Ac-PWAIVWGP[dT]VSRED-NH2 [PWAIVWGPtVSRED]
5 | 18100 | Ac-PWAIVW[dA]PTVSRED-NH2 [PWAIVWaPTVSRED]
6 | 341 | Ac-PWAIVWGPTVSAED-NH2
7 | 1230 | Ac-P[dW]AIVWGPTVSRED-NH2 [Pw…]
8 | 555 | B1
9 | 318 | Ac-PWAIVWGPTASRED-NH2
10 | 14100 | Ac-PW[dA]IVWGPTVSRED-NH2 [PWa…]
11 | 911 | Ac-PAAIVWGPTVSRED-NH2
12 | 1030 | Ac-PWAIVWGPAVSRED-NH2
13 | 35 | B2
14 | 33 | B3
15 | 600 | Ac-PWAIVWGPTVSRAD-NH2
16 | 29 | B4

Row | Ki [nM] | Binder
17 | 46600 | Ac-PWAAVWGPTVSRED-NH2
18 | 877 | Ac-PWAIVWAPTVSRED-NH2
19 | 686 | Ac-PWAIVWGPT[dV]SRED-NH2 […vSRED]
20 | 37 | B5
21 | 552 | Ac-AWAIVWGPTVSRED-NH2
22 | 159 | B6
23 | 480 | Ac-PWAIVWGPTVARED-NH2
24 | 46 | B7
25 | 45 | B8
26 | 31 | B9
27 | 132 | B10
28 | 6860 | Ac-PWAIVWG[dP]TVSRED-NH2 [PWAIVWGpTVSRED]
29 | 77 | B11
30 | 252 | B12
31 | 32 | B13
